According to US20110190477A1 (published 2011):

Assays:
human C5a receptor [1] = biological target: T1, human C5a receptor (UniProt P21730 1-350); experiment: saturation binding to human neutrophils (flow cytometry, MFI); 4 C
T1 chain: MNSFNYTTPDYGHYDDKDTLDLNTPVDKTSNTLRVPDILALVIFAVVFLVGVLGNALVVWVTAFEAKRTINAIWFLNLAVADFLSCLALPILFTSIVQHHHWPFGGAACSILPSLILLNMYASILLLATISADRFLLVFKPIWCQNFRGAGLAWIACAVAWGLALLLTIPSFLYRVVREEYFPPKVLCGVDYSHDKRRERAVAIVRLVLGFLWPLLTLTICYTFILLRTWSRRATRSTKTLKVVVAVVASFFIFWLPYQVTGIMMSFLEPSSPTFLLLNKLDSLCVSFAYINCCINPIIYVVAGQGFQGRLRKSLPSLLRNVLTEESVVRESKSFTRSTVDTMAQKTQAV

human C5a receptor [2] = biological target: T1, human C5a receptor; experiment: as above

B1: humanized anti-C5aR antibody hAb-Q (antibody)
light: DVVMTQSPLSLPVTLGEPASISCRSSQSLVHSNGNTYLHWYLQKPGQSPQLLIYKVSNRFSGVPDRFSGSGSGTDFTLKISRVEAEDVGVYFCSQSTLVPLTFGQGTKLEIKRTVAAPSVFIFPPSDEQLKSGTASVVCLLNNFYPREAKVQWKVDNALQSGNSQESVTEQDSKDSTYSLSSTLTLSKADYEKHKVYACEVTHQGLSSPVTKSFNRGEC
heavy: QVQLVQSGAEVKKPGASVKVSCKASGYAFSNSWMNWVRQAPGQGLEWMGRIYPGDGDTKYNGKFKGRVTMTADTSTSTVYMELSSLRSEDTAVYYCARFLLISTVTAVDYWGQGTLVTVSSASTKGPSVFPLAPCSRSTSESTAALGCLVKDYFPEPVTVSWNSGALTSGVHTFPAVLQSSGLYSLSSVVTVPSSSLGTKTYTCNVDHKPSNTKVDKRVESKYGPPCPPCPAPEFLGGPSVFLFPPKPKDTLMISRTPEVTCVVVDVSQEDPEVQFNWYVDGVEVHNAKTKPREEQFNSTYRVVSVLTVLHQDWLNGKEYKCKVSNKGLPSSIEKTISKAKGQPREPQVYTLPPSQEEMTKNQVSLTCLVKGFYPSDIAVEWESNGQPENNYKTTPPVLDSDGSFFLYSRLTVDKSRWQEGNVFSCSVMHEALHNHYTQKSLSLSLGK
EC50 (human C5a receptor [1]): 21.6 nM | Kd (human C5a receptor [2]): 22.6 nM

B2: mouse anti-C5aR monoclonal antibody 7F3 (antibody, V domains shown)
VH: QVQLQQSGPELVKPGASVKISCKASGYAFSNSWMNWVKQRPGKGLEWIGRIYPGDGDTKYNGKFKGKATLTADKSSSTAYMQLSSLTSEDSAVYFCARFLLISTVTAVDYWGQGTTLTVSS
VL: DVVMTQSPLSLPVSLGNQASISCRSSQSLVHSNGNTYLHWYLQKPGQSPKLLIYKVSNRFSGVPDRFSGSGSGTDFSLKISRVEAEDLGVYFCSQSTLVPLTFGAGTKLELK
EC50 (human C5a receptor [1]): 8.51 nM | Kd (human C5a receptor [2]): 9.2 nM

B3: humanized anti-C5aR antibody hAb-J (antibody)
light: DVVMTQSPLSLPVTLGEPASISCRSSQSLVHSNGNTYLHWYLQKPGQSPQLLIYKVSNRFSGVPDRFSGSGSGTDFTLKISRVEAEDVGVYFCSQSTLVPLTFGQGTKLEIKTVAAPSVFIFPPSDEQLKSGTASVVCLLNNFYPREAKVQWKVDNALQSGNSQESVTEQDSKDSTYSLSSTLTLSKADYEKHKVYACEVTHQGLSSPVTKSFNRGEC
heavy: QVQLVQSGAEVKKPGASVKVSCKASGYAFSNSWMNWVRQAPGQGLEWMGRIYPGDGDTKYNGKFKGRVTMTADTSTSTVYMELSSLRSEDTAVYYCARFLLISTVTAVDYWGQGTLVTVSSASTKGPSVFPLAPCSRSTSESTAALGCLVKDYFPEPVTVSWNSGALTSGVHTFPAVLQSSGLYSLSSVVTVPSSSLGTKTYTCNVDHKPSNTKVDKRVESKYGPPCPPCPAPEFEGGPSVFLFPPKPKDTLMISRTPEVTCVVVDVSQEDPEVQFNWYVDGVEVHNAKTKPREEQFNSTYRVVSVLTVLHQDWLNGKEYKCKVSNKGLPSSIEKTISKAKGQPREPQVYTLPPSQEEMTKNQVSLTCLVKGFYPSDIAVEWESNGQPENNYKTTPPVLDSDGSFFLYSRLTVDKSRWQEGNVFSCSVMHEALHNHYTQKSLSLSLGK
EC50 (human C5a receptor [1]): 20.1 nM | Kd (human C5a receptor [2]): 25.4 nM
